The values below come from patent US20250304996A1.

Holding throughout (assay): cell-based or functional assay
For test [1], the target named is SARS-CoV-2 S:B.1.1351+Δ19aa spike protein (B.1.351, encoded by pGM970, S-LV v04) (SARS-CoV-2) (UniProt P0DTC2).
Test [2] has as its target SARS-CoV-2 S:G614+Δ19aa spike protein (encoded by pGM907, S-LV v02) (SARS-CoV-2) (UniProt P0DTC2).
The target in test [3] is SARS-CoV-2 S:B.1.1.7+Δ19aa spike protein (encoded by pGM965, S-LV v04) (SARS-CoV-2) (UniProt P0DTC2).

For the substance “MM43 neutralising antibody (mouse IgG1, SARS-CoV-2 S neutralising antibody, Sino Biological, Catalogue No. 40591-MM43)”, the MM43 IC50 (ug/mL), neutralisation of S-LV transduction in test [1] turned out to be 0.5 µg/mL; in test [2] it was 0.8 µg/mL.

Consider “R001 neutralising antibody (rabbit IgG, SARS-CoV-2 S neutralising antibody, Sino Biological, Catalogue No. 40592-R001)”, for which the R001 IC50 (ug/mL), neutralisation of S-LV transduction in test [3] amounted to 0.32 µg/mL; in test [2] it was 0.06 µg/mL.
